We go through eight molecules from patent publication US20260049141A1 (OSE IMMUNOTHERAPEUTICS, published 2026).

As a reminder, the koff is the first-order rate constant of dissociation. As a reminder, the kon is the second-order rate constant of association.

In experiment [1] the target is Human CD28 expressed on Jurkat T cells (human, UniProt P10747 19-220). The experiment is described as follows: cell-based or functional assay.
The target of experiment [2] is T1, Biotinylated human PD-1 (AcroBiosystems, reference EP-101) (human, UniProt Q15116 25-167, biotinylated).
T1 construct: Kit reagent; called both biotinylated Human PD1 and Biotin-PD-1Fc; also called Biotin-PD-1Fc; not described
The experiment is described as follows: competitive ELISA: recombinant human PD-L1 immobilized, antibody mixed with a fixed concentration of biotinylated human PD-1, streptavidin-peroxidase; blocked ligand PD-L1. On the procedure: (A) PD-1 binding ELISA assay. […] Revelation was performed using an anti-human Fc antibody coupled to peroxidase. Colorimetry was determined at 450 nm using TMB substrate. Data were normalized by the condition anti-PD-1*2 or anti-PD-1*1 at 20 nM; considered as 100% of binding for bivalent and monovalent figure respectively. N=2 independent experiments per condition. (B) Antagonist PD-1/PDL1 ELISA assay. […] Revelation was performed with a streptavidin coupled to peroxidase. Colorimetry was determined at 450 nm using TMB substrate. Percentage of antagonist activity was determined by the formula 100-((DO450 nM*100)/DO450 nM No Ab). N=2 independent experiments. (C) CD28 binding MSD assay. […] Revelation was performed with an anti-human Fc antibody coupled to SulfoTag. Electric signal was determined using MSD system. (D) Cis-activity Jurkat T cell-based bioassay. […] IL-2 secretion was quantified in the culture supernatant after 48 hours of stimulation and data were normalized by the condition without antibody. N=2-7 independent experiments.
In general terms: An ELISA detects its analyte on a solid surface through an enzyme-linked reagent.

Experiment [3] deals with T2, Recombinant human CD28 (bio-techne, reference 342-CD-200) (human, UniProt P10747 19-152).
T2 construct: Bought protein; also called hCD28 recombinant protein; human recombinant CD28 protein
The experiment can be described thus: SPR (Biacore T200), hCD28 immobilized on CM5, antibody flowed at 0-3000 nM, bivalent model fit. On the procedure: (§1) hCD28 recombinant protein (bio-techne, reference 342-CD-200) was immobilized to the CM5 sensorship at 20 ug/mL in Na Acetate pH5 in the Biacore T200. […] The antigen-antibody association kinetics was followed for 2 minutes, and the dissociation kinetics was followed for 10 minutes. The association and dissociation curves were fit to a bivalent model.
In general terms: SPR reads the build-up and loss of mass on a sensor chip optically.

Experiment [4] has as its target T2, Recombinant human CD28 (bio-techne, …). The experiment is described as follows: SPR (Biacore T200), hCD28 immobilized on CM5, antibody flowed; monovalent anti-CD28 scFv (Format B1), not the bivalent anti-CD28 antibody. As for the experimental part:
as §1

T1 sequence (Q15116 25-167): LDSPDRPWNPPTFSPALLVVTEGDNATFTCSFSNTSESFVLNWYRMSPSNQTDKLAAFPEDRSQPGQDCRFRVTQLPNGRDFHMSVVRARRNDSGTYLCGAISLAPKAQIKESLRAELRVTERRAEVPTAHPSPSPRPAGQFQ

B1: Format B1 anti-PD-1*1/anti-CD28*1 scFv clone 2 (bispecific antibody)
chain 1: not shown
chain 2: PAPELLGGPSVFLFPPKPKDTLMISRTPEVTCVVVDVSHEDPEVKFNWYVDGVEVHNAKTKPREEQYASTYRVVSVLTVLHQDWLNGKEYKCKVSNKALPAPIEKTISKAKGQPREPQVYTLPPCRDELTKNQVSLWCLVKGFYPSDIAVEWESNGQPENNYKTTPPVLDSDGSFFLYSKLTVDKSRWQQGNVFSCSVMHEALHNHYTQKSLSLSPGK
VL: DVVMTQSPLSLPVTLGQPASISCRSSQSLVHANTNTYLEWYQQRPGQSPRLLIYKVSNRFSGVPDRFSGSGSGTDFTLKISRVEAEDVGVYYCFQGTHVPNTFGQGTKLEIK
Regarding B1, the “IL-2 secretion by PD-1 negative Jurkat T cells (cis-activity bioassay, 100 nM), fold versus no antibody” value in experiment [1] was found to be 4 fold.

B2: anti-PD-1/anti-CD28 multifunctional molecule Format C1 (bivalent anti-PD-1 antibody fused to an anti-CD28 scFv, clone 1) (bispecific antibody, V domains shown)
VH 1: QIQLVQSGSELKKPGASVKVSCKASGYTFTHYAMNWVRQAPGQGLEWMGWINTNTGEPTYAQGFTGRFVFSLDTSVSTAYLQISSLKAEDTAVYYCAREREPGMDNWGQGTLVTVSS
VL 1: DVVMTQSPLSLPVTLGQPASISCRSSQSLVHANTNTYLEWYQQRPGQSPRLLIYKVSNRFSGVPDRFSGSGSGTDFTLKISRVEAEDVGVYYCFQGTHVPNTFGQGTKLEIK
VH 2: QVKLQESGPGLVAPSQSLSITCTVSGFSLTSYGVYWVRQPPGKGLEWLGVIWAGGSTNYNSALMSRLSISKDNSKSQVFLKMNSLQTDDTAMYYCARDHYGSYGDYYAMDYWGQGTTVTVSS
VL 2: DIVLTQSPASLAVSLGQRATISCRASESVEYYDTSLMQWYQQKPGQPPKLLIYAASSVESGVPARFSGSGSGTDFSLNIHPVEEDDIAMYFCQQSRKVPWTFGGGTKLEIK
notes: Full chains not tied to the label in the text
As to B2, the “IC50 (read off the curve)” value in experiment [2] was roughly 1 nM.

B3: Format B1 anti-PD-1*1/anti-CD28*1 scFv clone 3 (bispecific antibody)
chain 1: not shown
chain 2: PAPELLGGPSVFLFPPKPKDTLMISRTPEVTCVVVDVSHEDPEVKFNWYVDGVEVHNAKTKPREEQYASTYRVVSVLTVLHQDWLNGKEYKCKVSNKALPAPIEKTISKAKGQPREPQVYTLPPCRDELTKNQVSLWCLVKGFYPSDIAVEWESNGQPENNYKTTPPVLDSDGSFFLYSKLTVDKSRWQQGNVFSCSVMHEALHNHYTQKSLSLSPGK
VL: DVVMTQSPLSLPVTLGQPASISCRSSQSLVHANTNTYLEWYQQRPGQSPRLLIYKVSNRFSGVPDRFSGSGSGTDFTLKISRVEAEDVGVYYCFQGTHVPNTFGQGTKLEIK
On to B3, for which the “IL-2 secretion by PD-1 negative Jurkat T cells (cis-activity bioassay, 100 nM), fold versus no antibody” value in experiment [1] is 2 fold.

B4: anti-PD-1/anti-CD28 multifunctional molecule Format C5 (scFv anti-CD28 fused to C-terminal of bivalent anti-PD1, clone 1) (bispecific antibody, V domains shown)
VH 1: QIQLVQSGSELKKPGASVKVSCKASGYTFTHYAMNWVRQAPGQGLEWMGWINTNTGEPTYAQGFTGRFVFSLDTSVSTAYLQISSLKAEDTAVYYCAREREPGMDNWGQGTLVTVSS
VL 1: DVVMTQSPLSLPVTLGQPASISCRSSQSLVHANTNTYLEWYQQRPGQSPRLLIYKVSNRFSGVPDRFSGSGSGTDFTLKISRVEAEDVGVYYCFQGTHVPNTFGQGTKLEIK
VH 2: QVKLQESGPGLVAPSQSLSITCTVSGFSLTSYGVYWVRQPPGKGLEWLGVIWAGGSTNYNSALMSRLSISKDNSKSQVFLKMNSLQTDDTAMYYCARDHYGSYGDYYAMDYWGQGTTVTVSS
VL 2: DIVLTQSPASLAVSLGQRATISCRASESVEYYDTSLMQWYQQKPGQPPKLLIYAASSVESGVPARFSGSGSGTDFSLNIHPVEEDDIAMYFCQQSRKVPWTFGGGTKLEIK
As for B4, the “IC50 (read off the curve)” value in experiment [2] is roughly 0.3 nM.

B5: anti-PD-1/anti-CD28 multifunctional molecule Format B3 (scFv anti-CD28 fused to C-terminal of monovalent anti-PD1, clone 1) (bispecific antibody, V domains shown)
VH 1: QIQLVQSGSELKKPGASVKVSCKASGYTFTHYAMNWVRQAPGQGLEWMGWINTNTGEPTYAQGFTGRFVFSLDTSVSTAYLQISSLKAEDTAVYYCAREREPGMDNWGQGTLVTVSS
VL 1: DVVMTQSPLSLPVTLGQPASISCRSSQSLVHANTNTYLEWYQQRPGQSPRLLIYKVSNRFSGVPDRFSGSGSGTDFTLKISRVEAEDVGVYYCFQGTHVPNTFGQGTKLEIK
VH 2: QVKLQESGPGLVAPSQSLSITCTVSGFSLTSYGVYWVRQPPGKGLEWLGVIWAGGSTNYNSALMSRLSISKDNSKSQVFLKMNSLQTDDTAMYYCARDHYGSYGDYYAMDYWGQGTTVTVSS
VL 2: DIVLTQSPASLAVSLGQRATISCRASESVEYYDTSLMQWYQQKPGQPPKLLIYAASSVESGVPARFSGSGSGTDFSLNIHPVEEDDIAMYFCQQSRKVPWTFGGGTKLEIK
Regarding B5, the “IC50 (read off the curve)” value in experiment [2] is roughly 1 nM.

B6: Anti PD-1*1/anti CD28*1 scFv Format B1 (anti-PD-1 clone 1 / anti-CD28 clone 1) (bispecific antibody, V domains shown)
VH 1: QIQLVQSGSELKKPGASVKVSCKASGYTFTHYAMNWVRQAPGQGLEWMGWINTNTGEPTYAQGFTGRFVFSLDTSVSTAYLQISSLKAEDTAVYYCAREREPGMDNWGQGTLVTVSS
VL 1: DVVMTQSPLSLPVTLGQPASISCRSSQSLVHANTNTYLEWYQQRPGQSPRLLIYKVSNRFSGVPDRFSGSGSGTDFTLKISRVEAEDVGVYYCFQGTHVPNTFGQGTKLEIK
VH 2: QVKLQESGPGLVAPSQSLSITCTVSGFSLTSYGVYWVRQPPGKGLEWLGVIWAGGSTNYNSALMSRLSISKDNSKSQVFLKMNSLQTDDTAMYYCARDHYGSYGDYYAMDYWGQGTTVTVSS
VL 2: DIVLTQSPASLAVSLGQRATISCRASESVEYYDTSLMQWYQQKPGQPPKLLIYAASSVESGVPARFSGSGSGTDFSLNIHPVEEDDIAMYFCQQSRKVPWTFGGGTKLEIK
notes: Only the variable domains are tied to the molecule by name; also called anti PD-1/anti CD28 (Format B1); anti-PD-1*1/anti-CD28*1 scFv clone 1
B6: in experiment [3], the Kd turned out to be 5400 nM, the koff is 0.0249 s⁻¹ and the kon was determined as 4620 M⁻¹ s⁻¹. Moreover, the Kd in experiment [4] is roughly 5000 nM. Besides, the “IC50 (read off the curve)” value in experiment [2] is roughly 1 nM.

B7: anti-PD-1/anti-CD28 multifunctional molecule Format C2 (bivalent anti-PD-1 antibody fused to an anti-CD28 scFv, clone 1) (bispecific antibody, V domains shown)
VH 1: QIQLVQSGSELKKPGASVKVSCKASGYTFTHYAMNWVRQAPGQGLEWMGWINTNTGEPTYAQGFTGRFVFSLDTSVSTAYLQISSLKAEDTAVYYCAREREPGMDNWGQGTLVTVSS
VL 1: DVVMTQSPLSLPVTLGQPASISCRSSQSLVHANTNTYLEWYQQRPGQSPRLLIYKVSNRFSGVPDRFSGSGSGTDFTLKISRVEAEDVGVYYCFQGTHVPNTFGQGTKLEIK
VH 2: QVKLQESGPGLVAPSQSLSITCTVSGFSLTSYGVYWVRQPPGKGLEWLGVIWAGGSTNYNSALMSRLSISKDNSKSQVFLKMNSLQTDDTAMYYCARDHYGSYGDYYAMDYWGQGTTVTVSS
VL 2: DIVLTQSPASLAVSLGQRATISCRASESVEYYDTSLMQWYQQKPGQPPKLLIYAASSVESGVPARFSGSGSGTDFSLNIHPVEEDDIAMYFCQQSRKVPWTFGGGTKLEIK
notes: See Format C1; full chains not tied to the label in the text
Take B7: the “IC50 (read off the curve)” value in experiment [2] was roughly 2 nM.

B8: anti-CD28 bivalent clone 1 antibody with no anti-PD-1 valency (antibody, V domains shown)
VH: QVKLQESGPGLVAPSQSLSITCTVSGFSLTSYGVYWVRQPPGKGLEWLGVIWAGGSTNYNSALMSRLSISKDNSKSQVFLKMNSLQTDDTAMYYCARDHYGSYGDYYAMDYWGQGTTVTVSS
VL: DIVLTQSPASLAVSLGQRATISCRASESVEYYDTSLMQWYQQKPGQPPKLLIYAASSVESGVPARFSGSGSGTDFSLNIHPVEEDDIAMYFCQQSRKVPWTFGGGTKLEIK
notes: also called bivalent anti-CD28 antibody; Bivalent anti-CD28 (positive control)
In the case of B8, in experiment [3], the Kd amounted to 75 nM, the koff turned out to be 0.000842 s⁻¹ and the kon came to 11200 M⁻¹ s⁻¹.
